# Source: the DeepSol protein solubility set
# Assay: soluble on expression in E. coli; label from the status in PepcDB or PDB records
row,Sequence,soluble on expression in E. coli
1,MKEVKRPVVSVVVPVYNTEPFLAECLHSLEKQTLTDIEIILVNDGSTDNSGRLLREYAGKDARFVYVEQENQGLSAARNTGMEHASGHYLAFLDSDDWLAENALQVLCAIAAKTRTDIVSGNTLAVHADGQVQSWERRGRELFATGTVVSGSTYFSRVMDCRCYVPMVYNYLYRRDFIEQNGFRFEPGLVHEDELWTPQVLTTAQKITVADIDFYYYRQREGSIMTATAAGRRIASIQLIIEKLLEYSRKHLFEKKYREAKEALYVRLLQIYSTACTLHPDGTYTTLYDRAGEMLRVCEELRRQESLGRWYSEEILNRMKLYYDRLQTMEG,not soluble
2,MGSDKIHHHHHHMTTWVLLRGLMRDQRHWNGFDQRLRQKGLRVLTPDLPGNGTLSTEASPLKIADYAHAVWLQLDEQVQEGETIYLLGLSMGGMLALEMARQRPWLIRHVFVLNSSAANLSAWYQRFNPLNALKAFFLRARGKALHPIESTIVRLTSFRHRLDCGLIAEWSEFRRQSSPTIRNAWRQLWAAFQYQCPLTVEVPISVLCGDRDALVSMASSKALALHFHTDLIVLAYCGHDAAIDAPAKLAHYLLAIVAPTKLQAEVQEDDEPAHAQYAHTQYSCNDLLEEEMAFNEAIFSVWDEKALSTLHSKSSAMNSAKTVNS,not soluble
3,MSLEYFDMRKMSVNLWRNAAGETREICTFPPAKRDFYWRASITSIAANGEFSLFPGMERIVTLLEGGEMFLESADRFNHTLKPLQPFSFAADLVVKAKLTAGQMSMDFNIMTRLDVCKAKVRIAERTFTTFGSRGGVVFVINGAWQLGDKLLTTDQGACWFDGRHTLRLLQPQGKLLFSEINWLAGHSEGHHHHHH,not soluble
4,MSLVTLADANPAQLAPFAGGAFEVAPLDVADEAALTVFLTRQDIVVSACPYFLNKTIARVAVATGTHYFDLTEDVETTAFIKALGETADVALVPQCGLAPGFICILGADMAARFERVKSVKMRVGALPLYPTNALSYNVTWSVDGLINEYCNPCEIVFEGRPTLVPALEGLEHVMIDGVSYEAFNTSGGLGTLTETLDGRVSDLSYKTLRYPGHAEIMKLLLRGLELADDRETLRRILNRAAPFTRKDVVVVFVEGHHHHHH,not soluble
5,MSLSWIYDAHIHLSDPEYKSDMNMILNYMDLLKIKACCVSMDLETSNETMSLYEKSKNILPFIGIHPEMAQKESKPVYDLIEKNNEIISGVGEIGLDRTYIDTEDEWNVQKEVFSKQLSLAEKFNKPVSIHSRKTLSDIFEILPSYKIPGILLHWFDGNKSQLRTAMDNEYFVSYGPLLIYAHDKQTLLTKTDPNRLLVETDGPVKFSRCFEYKTTEIMFVSSVIFCASKLLHMPYEKLLEQIEGNSKRFLGIEGHHHHHH,soluble
6,MGSDKIHHHHHHMADNTPKFSQGSTSDTVGYEDFLVDLKTRISNAQLRAVVAVNKELVLLYWQIGRDILHRQQQQGWGAKVIDRLASDLRKAFPDIKGFSSRNLKYMRAFAEAYNDEEFVQQAVAQIPWGHNVRLLDAVKDPAERLWYAQQTIQNGWSRNVLVHQIESKLYQRQGKATTNFNNTLPQPQSELAQQLLKDPYTFDFLNLGEDFLERDLERALIKHIRDFLLELGVGFAFVGSQYHLEVGGEDFYIDLLFYHLRLRCFVVIDLKIEDFKPEFSGKMNFYVSAVDDLLRHPNDQSTIGIILCRSKNKVIAEYSLRDMYKPIGVSTYQLKDNLPEFVQDNLPTIEQLESELETVVLKLEKLDDL,not soluble
7,HGSMTDTYLHETLVFDNKLSYIDNQRDTDGPAILLLPGWCHDHRVYKYLIQELDADFRVIVPNWRGHGLSPSEVPDFGYQEQVKDALEILDQLGVETFLPVSHSHGGWVLVELLEQAGPERAPRGIIMDWLMWAPKPDFAKSLTLLKDPERWREGTHGLFDVWLDGHDEKRVRHHLLEEMADYGYDCWGRSGRVIEDAYGRNGSPMQMMANLTKTRPIRHIFSQPTEPEYEKINSDFAEQHPWFSYAKLGGPTHFPAIDVPDRAAVHIREFATAIRQGQ,soluble
8,MGHHHHHHSHMFGCLVAGRLVQTAAQQVAEDKFVFDLPDYESINHVVVLMLGTIPFPEGMGGSVYFSYPDSMDASMALLGFVTNGKPSAIFKISGLKSGEGSQHPFGAMNIVRTPSVAQIGISVELLDSMAQQTPVGNAAVSSVDSFTQFTQKMLDNFYNFASSFAVSQAQMTPSPSEMFIPANVVLKWYENFQRRLAQNPLFWKT,not soluble
9,MSLAMNKVPGYNIYIGGVFALKNKVAMSGANITHVLSVIRLRPKDDLFAGYQHHRIEVDDLDDENLLEHFPSAIKFIQSGLDAGGGVLVHWPLTASSAMGKSRSATVCIAYLLRRQRNALTPQSALALLRESRPLCEPNPGFMEQLNVYYQMGEGHHHHHH,not soluble
10,MGSDKIHHHHHHMLAQVPNTISLQQELTPLLQHEWLPHINQRDYHSGSQGGWDVLALRCAEEYHAAHPILQAFSISAANEWDNLPALESSPTLLDFIQSLACPVKSVRFMRLHAGAEIKPHRDQGLSLEQGEARLHLPLQTHDQLYFYVNDQRVPMQAGELWYINADQSHWVANKGSSARINLVIDCKVNSWLRELIHGAKIKA,not soluble
11,MSLNKPKIVILGAGYGGLMTVTRLTKYVGPNDADITLVNKHNYHYETTWMHEASAGTLHHDRCRYQIKDVINQSRVNFVQDTVKAIKIDEKKVVLANGELQYDYLVIGLGAVPETFGIKGLKEYAFPIANINTSRLLREHIELQFATYNTEAEKRPDRLTIVVGGAGFTGIEFLGELAARVPELCKEYDVDRSLVRIICVEAAPTVLPGFDPELVDYAVHYLEENGVEFKIGTAVQECTPEGVRVGKKDEEPEQIKSQTVVWAAGVRGHPIVEEAGFENMRGRVKVNPDLRAPGHDNVFILGDSSLFMNEDTERPYPPTAQIAMQQGITVAKNLGRLIKGGELEEFKPDIKGTVASLGEHNAVGVVYGRKLKGTPASFMKKVIDNRSLFMIGGLGLTLKKGKFKEGHHHHHH,soluble
12,MCFRTENGDFFGWEGVENTVGCGAGTCTHVWNYAQTVAFLFPELEQSMRRIEFLQETQADGYMPFRTYRPFGLPAWEMLPSADGQLGAVVRLYREWRLSGDNRLIEDCWDGVVRSMEYAIRTWDTDGDFVPDSAQHVTYDTELYGMTSMVSTLFFAALIAAAEMAEYMGDQERARRYRDGAEKGAKLMDEKCWNGEYYIQLIDDVDKYRYQYGKGCLSDQLLGQFLAQEAGLGYVLPKNHVKKAAESIFRYNFIERASDFGHVQRAYIFNDEMGLTPCTWPLGERPRFPFIYFGEVWTGIEYEVAALLIREDLLEEGLTIVKAVRDRQDGYRRNPWSENESGYYYTRAMASYSILNALSGFSCDQRKNQMSFQPKLNQDNFRCFWCNGKSWGIFSQKKEKGEIRQELQVLYGEKDVSVINLEHHHHHH,not soluble
13,SSKVEQLRAQLNERILVLDGGMGTMIQSYRLNEADFRGERFADWPCDLKGNNDLLVLSKPEVIAAIHNAYFEAGADIIETNTFNSTTIAMADYQMESLSAEINFAAAKLARACADEWTARTPEKPRYVAGVLGPTNRTASISPDVNDPAFRNITFDQLVAAYRESTKALVEGGADLILIETVFDTLNAKAAVFAVKTEFEALGVELPIMISGTITDASGRTLSGQTTEAFYNSLRHAEALTFGLNCALGPDELRQYVQELSRIAECYVTAHPNAGLPNAFGEYDLDADTMAKQIREWAEAGFLNIVGGCCGTTPQHIAAMSRAVEGLAPRKLPEIPVACRLSGLEPLNIGEDSLFVNVGERTNVTGSAKF,not soluble
14,MYEWLNALPKAELHLHLEGTLEPELLFALAERNRIALPWNDVETLRKAYAFNNLQEFLDLYYAGADVLRTEQDFYDLTWAYLQKCKAQNVVHVEPFFDPQTHTDRGIPFEVVLAGIRAALRDGEKLLGIRHGLILSFLRHLSEEQAQKTLDQALPFRDAFIAVGLDSSEVGHPPSKFQRVFDRARSEGFLTVAHAGEEGPPEYIWEALDLLKVERIDHGVRAFEDERLMRRLIDEQIPLTVCPLSNTKLCVFDDMSQHTILDMLERGVKVTVNSDDPAYFGGYVTENFHALQQSLGMTEEQARRLAQNSLDARLVK,not soluble
15,MKVVVIDAGHGAKDSGAVGISRKNYEKTFNLAMALKVESILKQNPKLEVVLTRSDDTFLELKQRVKVAENLKANVFVSIHANSSGSSASNGTETYYQRSASKAFANVMHKYFAPATGLTDRGIRYGNFHVIRETTMPAVLLEVGYLSNAKEEATLFDEDFQNRVAQGIADGITEYLDVK,soluble
16,MSLNRNDKRGARRNILAHYDLGNALFERLLDPTMMYSAAQFEHPGQTLEQAQLHKLERICQKLELSPDDHLLEIGSGWGSLAIHAATRYGCRVTTTTLSEAQYSHTLERVKALGLGQRVQVLREDYRDLQGTFDKLVSIEMIEAVGHRYLPVYFRQCASLLKPEGLMLLQAITIRDQRYAQAQRSVDFIQRYIFPGGALPSLSVLLDTASRHTGLNLVHMEDFGLDYAHTLRHWRENLRQARTALTDLGYDDMFQRLWEFYLCYCQGGFEERAIGVAHLLWAAEGHHHHHH,soluble
17,GMGSLAEWYQRIPTPDDLTRVESLFANMQAQFPQLKLEFKWNQPMFTDHGTFIMGFNPSKKHLAVAIEPQTMTRFIPQIDKAGYDHSQIIRFPWHKPLDEQLIHDLIAYTIDQKKDATTFWQR,soluble
18,METSMITELKSVRDIWKKMPSERHARIFLEEMIWPSGRHCPHCGSLSSTPIRGRTARPGLYQCAERECCLQFTVTTKTPMHATKLDLRIWIAAIFLMLTSSKGISSVVMARILGVNQKTAWKLGHAIRELMDEREAVSARLAGVVEVDEAYVGGAPKFKKGVKNKRGRGTGKPMVLVAADRTGQAKATLIPNAKGATLGPIMKEWIDPSSALMTDSNTAYRKIGRSFASHHTVNHGKRQHSRPSKGAHINTVEAVNSQVQRALIGVYHRLGRQHLQRYLDEILWQWNHRQQEVKIRNRKTSSGTKTIATRVWKPIPVVDQMRGLLCCAVGRQLRRTPQWGLCWPIHLFEHKGTFA,soluble
19,MKVPEAAISRLITYLRILEELEAQGVHRTSSEQLGELAQVTAFQVRKDLSYFGSYGTRGVGYTVPVLKRELRHILGLNRKWGLCIVGMGRLGSALADYPGFGESFELRGFFDVDPEKVGRPVRGGVIEHVDLLPQRVPGRIEIALLTVPREAAQKAADLLVAAGIKGILNFAPVVLEVPKEVAVENVDFLAGLTRLSFAILNPKWREEMMG,soluble
20,AHHHHHHGSEEYYVCPECGSEDVEVIKERGREVTLRCNECGYVWMITLPKLREIPVIVSKHERSFREKAVLPEDEVIKVGDVIEIENDQVKVLSIELPGGKRVRKAKVAEIQTIWGESLTYPKVFGVSIYLPGGITQSFKVVVDREEEFVVGEVIEVGGYTFKVEMIKTEKKLMRSGKAKAENIVRLMGHAIKGRARRKLKIYEGYDSISAENQ,not soluble
21,MKQFSGLSRTIQGNHLLDTCAIDILKIGHRPLVLCAKQEYNTTVESFVKVLTCHGLIVKIVYMEEWDQNSVEECGEVGFRHRADHIIGIGNSSVAACTKAVADLLDLPAVLIPTSPFTTLPWVSVENKKRERPLFNESIQLIIADREQLLTQPTSELINGVVNTLLYLAAIKEVKRNHLFSLVDDILIRSFESVLLRGSLQAIEDFEARILSKEVQDVLEVLSTCVTLDLPSDAWDVIQQIESKLSERREDLVDEPLKRNVVLYLLLSYLTQESEEFQARLKWCQQLLLSANSSNLLSLEAVLKEIALEMGEDGSTRC,soluble
22,MSLKYYLAPMEGITGFIYRNSYEKFFGGIDKYFAPFVVPNSSKSLKTKELRDVLPENNKGINLVPQILTNDSEGFISTARKLKQLGYNEINLNLGCPSGTVVGKKRGSGFLAHKEELDKFLEEIFKIDDMKLSIKTRLGMDKPEEFYELIKIYNKYPMEELIIHPRTRQDFYANKPNLEVFKDAISLSKNPICYNGDIFTVEDHNKLIETFPEVDKIMLGRGILANPALMNEILNNEFMDKKVLKEFHDEVFNKYREVFNEDRNAMFRMKELWGYMIYMFSNNKKYAKKIKKAQKVVEYNQAVTSLFLEQDILKGAGLFSSEEGHHHHHH,soluble
